What was measured:
[1] = target: T1, WD40 repeat protein 5 truncation mutant lacking residues 1-22 (WDR5ΔN) (UniProt P61964 23-334); assay: long-lived events (koff-3), 1 [WDR5]
[2] = target: T1, WD40 repeat protein 5 truncation mutant …; assay: long-lived events (koff-3), 2 [WDR5]
[3] = target: T1, WD40 repeat protein 5 truncation mutant …; assay: long-lived events (koff-3), 4 [WDR5]
[4] = target: T1, WD40 repeat protein 5 truncation mutant …; assay: short-lived events (koff-1), 1 [WDR5]
[5] = target: T1, WD40 repeat protein 5 truncation mutant …; assay: short-lived events (koff-1), 4 [WDR5]
[6] = target: T1, WD40 repeat protein 5 truncation mutant …; assay: long-lived events (koff-3), 0.5 [WDR5]
[7] = target: T1, WD40 repeat protein 5 truncation mutant …; assay: medium-lived events (koff-2), 1 [WDR5]
[8] = target: T1, WD40 repeat protein 5 truncation mutant …; assay: medium-lived events (koff-2), 2 [WDR5]
[9] = target: T1, WD40 repeat protein 5 truncation mutant …; assay: medium-lived events (koff-2), 4 [WDR5]
[10] = target: T1, WD40 repeat protein 5 truncation mutant …; assay: short-lived events (koff-1), 0.5 [WDR5]
[11] = target: T1, WD40 repeat protein 5 truncation mutant …; assay: long-lived events (koff-3), event durations
[12] = target: T1, WD40 repeat protein 5 truncation mutant …; assay: medium-lived events (koff-2), event durations
[13] = target: T1, WD40 repeat protein 5 truncation mutant …; assay: short-lived events (koff-1), event durations
[14] = target: T1, WD40 repeat protein 5 truncation mutant …; assay: long-lived events (koff-3), 1 [WDR5]; remark: listed apart in the source
[15] = target: T1, WD40 repeat protein 5 truncation mutant …; assay: long-lived events (koff-3), 2 [WDR5]; remark: listed apart in the source
[16] = target: T1, WD40 repeat protein 5 truncation mutant …; assay: long-lived events (koff-3), 4 [WDR5]; remark: listed apart in the source
[17] = target: T1, WD40 repeat protein 5 truncation mutant …; assay: short-lived events (koff-1), 1 [WDR5]; remark: listed apart in the source
[18] = target: T1, WD40 repeat protein 5 truncation mutant …; assay: short-lived events (koff-1), 2 [WDR5]
[19] = target: T1, WD40 repeat protein 5 truncation mutant …; assay: short-lived events (koff-1), 4 [WDR5]; remark: listed apart in the source
[20] = target: T1, WD40 repeat protein 5 truncation mutant …; assay: long-lived events (koff-3), 0.5 [WDR5]; remark: listed apart in the source
[21] = target: T1, WD40 repeat protein 5 truncation mutant …; assay: medium-lived events (koff-2), 1 [WDR5]; remark: listed apart in the source
[22] = target: T1, WD40 repeat protein 5 truncation mutant …; assay: medium-lived events (koff-2), 2 [WDR5]; remark: listed apart in the source
[23] = target: T1, WD40 repeat protein 5 truncation mutant …; assay: medium-lived events (koff-2), 4 [WDR5]; remark: listed apart in the source
[24] = target: T1, WD40 repeat protein 5 truncation mutant …; assay: short-lived events (koff-1), 0.5 [WDR5]; remark: listed apart in the source
[25] = target: T1, WD40 repeat protein 5 truncation mutant …; assay: medium-lived events (koff-2), 0.5 [WDR5]

Binder: MGDRGPEFELGTMLNPHGAARAEVYLRPAPAPAPAPAPA (other) [O(PA)6 nanopore sensor (adaptor O - MLL4Win - (PA)6 tether - tFhuA)]
- koff [1]: 0.78 s⁻¹
- koff [2]: 0.77 s⁻¹
- koff [3]: 0.73 s⁻¹
- koff [4]: 159 s⁻¹
- koff [5]: 167 s⁻¹
- koff [6]: 0.77 s⁻¹
- koff [7]: 23 s⁻¹
- koff [8]: 20 s⁻¹
- koff [9]: 21 s⁻¹
- koff [10]: 178 s⁻¹
- koff [11]: 0.77 s⁻¹
- koff [12]: 20 s⁻¹

Binder: MGDRGPEFELGTMLNPHGAARAEVYLRPAPAPA (other) [O(PA)3 nanopore sensor (adaptor O - MLL4Win - (PA)3 tether - tFhuA)]
- koff [13]: 210 s⁻¹
- koff [12]: 34 s⁻¹

Binder: MGDRGPEFELGTMLNPHGAARAEVYLRGGSGGS (other) [O(GGS)2 nanopore sensor (adaptor O - MLL4Win - (GGS)2 tether - tFhuA)]
- koff [13]: 86 s⁻¹
- koff [12]: 9.2 s⁻¹

Binder: MGDRGPEFELGTMLNPHGAARAEVYLRGGSGGSGGSGGS (other) [O(GGS)4 nanopore sensor (adaptor O - MLL4Win - (GGS)4 tether - tFhuA)]
- koff [14]: 0.77 s⁻¹
- koff [15]: 0.77 s⁻¹
- koff [16]: 0.79 s⁻¹
- koff [17]: 91 s⁻¹
- koff [18]: 87 s⁻¹
- koff [19]: 81 s⁻¹
- koff [20]: 0.84 s⁻¹
- koff [21]: 9.4 s⁻¹
- koff [22]: 9.9 s⁻¹
- koff [23]: 9.5 s⁻¹
- koff [24]: 84 s⁻¹
- koff [25]: 8.9 s⁻¹
- koff [11]: 0.77 s⁻¹
- koff [13]: 87 s⁻¹
- koff [12]: 9.9 s⁻¹
